Laboratory results reported in patent US8318473B2, “Biofuel production” (Bio Architecture Lab, Inc., priority 2007, dated 2012).

Columns and labels:
[1] = In vitro pyruvate formation from alginate with purified enzymes; details: ~5 ug purified enzyme with Atu3025, UxuA, KdgK, KdgA; 1% alginate or ~0.5% mannuronate; over night; FIG. 6B, 6C
Protocol: The reaction mixture contained 1% alginate or ˜0.5% mannuronate, ˜5 ug of purified Atu3026 (ADH12) or Atu3027 (ADH11), and ˜5 ug of purified oligoalginate lyase (Atu3025), UxuA, KdgK, and KdgA, 2 mM of ATP, and 0.6 mM of NADPH in 20 mM Tris-HCl pH7.0. The reaction was carried out over night and the pyruvate formation was monitored by the pyruvate assay kit (BioVision, Inc).

[2] = TBA assay of culture media for secreted alginate lyase; details: media of overnight BL21 culture, LB+2% alginate+0.1 mM IPTG; 1:1 with 0.8% TBA, 10 min at 99 degrees Celsius; FIG. 47
[3] = Kinetic testing of oxidation and reduction reactions on various substrates using 2ADH-16; format: biochemical; details: 0.04 mg/mL enzyme, 0.25 mg/mL cofactor, 20 mM Tris HCl pH 6.5(red) or 9.0(ox), 25 C; FIG. 35, 36
Protocol: Similar to above, kinetic testing for both oxidation and reduction reactions was performed on various substrates using 2ADH-16. The conditions for these studies were as follows: 0.04 mg/mL enzyme, 0.25 mg/mL cofactor, 20 mM Tris HCl Buffer pH 6.5(red) or 9.0(ox), T=25 C, 100 uL total volume was used.

[4] = background statement, no test described; cited from earlier work

B1: Atu3027: alcohol dehydrogenase isolated from Agrobacterium tumefaciens C58, polypeptide SEQ ID NO: 90 (protein)
chain: MRSELPEGFFGPREWARLNAVADIIPGFPHTDFDTANGAEALAEADILLAAWGTPSLTRERLSRAPRLKMLAYAASSVRMVAPAEFWETSDILVTTAASAMAVPVAEFTYAAIIMCGKDVFRLRDEHRTERGTGVFGSRRGRSLPYLGNHARKVGIVGASRIGRLVMEMLARGTFEIAVYDPFLSAEEAASLGAKKAELDELLAWSDVVSLHAPILPETHHMIGARELALMADHAIFINTARGWLVDHDALLTEAISGRLRILIDTPEPEPLPTDSPFYDLPNVVLTPHIAGALGNELRALSDLAITEIERFVAGLAPLHPVHKQDMERMA
modifications: Agrobacterium tumefaciens C58
[1]
  DEHU hydrogenase and mannuronate hydrogenase reactions in pyruvate formation from alginate: capable of catalyzing both DEHU hydrogenase and mannuronate hydrogenase reactions

B2: Vs24254: putative Vibrio splendidus protein similar to an alginate lyase, SEQ ID NO: 32; functional external alginate lyase (protein, listed as Vibrio splendidus)
chain: MNKPIFVVVLASLTYGCGGSSSSDSSDPSDTNNSGASYGVVAPYDIAKYQNILSSSDLQVSDPNGEEGNKTSEVKDGNFDGYVSDYFYADEETENLIFKMANYKMRSEVREGENFDINEAGVRRSLHAEISLPDIEHVMASSPADHDEVTVLQIHNKGTDESGTGYIPHPLLRVVWEQERDGLTGHYWAVMKNNAIDCSSAADSSDCYATSYNRYDLGEADLDNFTKFDLSVYENTLSIKVNDEVKVDEDITYWQHLLSYFKAGIYNQFENGEATAHFQALRYTTTQVNGSNDWDINDWKLTIPASKDTWYGSGGDSAAELEPERCESSKDLLANDSDVYDSDIGLSYFNTDEGRVHFRADMGYGTSTENSSYIRSELRELYQSSVQPDCSTSDEDTSWYLDDTRTNATSHELTASLRIEDYPNINNQDPKVVLGQIHGWKINQALVKLLWEGESKPVRVILNSDFERNNQDCNHCDPFSVELGTYSASEEWRYTIRANQDGIYLATHDLDGTNTVSHLIPWGQDYTDKDGDTVSLTSDWTSTDIAFYFKAGIYPQFKPDSDYAGEVFDVSFSSLRAEHN
[2]
  TBA assay result (cleavage of alginate polymer in growth medium): positive TBA assay result of pink color

B3: 2ADH-16: secondary alcohol dehydrogenase isolated from Klebsiella pneumoniae subsp. pneumoniae MGH 78578, SEQ ID NO: 138 (protein)
chain: MTAFHNKSVLVLGGSRGIGAAIVRRFVADGASVVFSYSGSPEAAERLAAETGSTAVQADSADRDAVISLVRDSGPLDVLVVNAGIALFGDALEQDSDAIDRLFHINIHAPYHASVEAARRMPEGGRIIVIGSVNGDRMPLPGMAAYALSKSALQGLARGLARDFGPRGITVNVVQPGPIDTDANPENGPMKELMHSFMAIKRHGRPEEVAGMVAWLAGPEASFVTGAMHTIDGAFGA
modifications: Klebsiella pneumoniae subsp. pneumoniae MGH78578
[3]
  oxidation and reduction of various substrates: capable of catalyzing both the oxidation and reduction of a wide variety of substrates

B4: Vs24259: putative Vibrio splendidus protein similar to an alginate lyase, SEQ ID NO: 34; negative control in TBA assay (protein, listed as Vibrio splendidus)
chain: MKQITLKTLLASSILLAVGCASTSTPTADFPNNKETGEALLTPVAVSASSHDGNGPDRLVDQDLTTRWSSAGDGEWATLDYGSVQEFDAVQASFSKGNQRQSKFDIQVSVDGESWTTVLENQLSSGKAIGLERFQFEPVVQARYVRYVGHGNTKNGWNSVTGLAAVNCSINACPASHIITSDVVAAEAVIIAEMKAAEKARKDARKDLRSGNFGVAAVYPCETTVECDTRSALPVPTGLPATPVAGNSPSENFDMTHWYLSQPFDHDKNGKPDDVSEWNLANGYQHPEIFYTADDGGLVFKAYVKGVRTSKNTKYARTELREMMRRGDQSISTKGVNKNNWVFSSAPESDLESAAGIDGVLEATLKIDHATTTGNANEVGRFIIGQIHDQNDEPIRLYYRKLPNQETGAVYFAHESQDATKEDFYPLVGDMTAEVGDDGIALGEVFSYRIDVKGNTMTVTLIREGKDDVVQVVDMSNSGYDAGGKYMYFKAGVYNQNISGDLDDYSQATFYQLDVSHDQYKK
[2]
  TBA assay result (cleavage of alginate polymer in growth medium): little or no cleavage of the alginate polymer has occurred

B5: BAL: benzaldehyde lyase (BAL) from Pseudomoas fluorescens, ThDP-dependent C—C ligase, SEQ ID NOS: 143-144 (protein, listed as Pseudomonas fluorescens)
chain: MAMITGGELVVRTLIKAGVEHLFGLHGAHIDTIFQACLDHDVPIIDTRHEAAAGHAAEGYARAGAKLGVAGHGGRGIYQCGHAHCQRLAGSQGRCIPHPGSGALRDDETNTLQAGIDQVAMAAPITKWAHRVMATEHIPRLVMQAIRAALSAPRGPVLLDLPWDILMNQIDEDSVIIPDLVLSAHGARPDPADLDQALALLRKAERPVIVLGSEASRTARKTALSAFVAATGVPVFADYEGLSMLSGLPDAMRGGLVQNLYSFAKADAAPDLVLMLGARFGLNTGHGSGQLIPHSAQVIQVDPDACELGRLQGIALGIVADVGGTIEALAQATAQDAAWPDRGDWCAKVTDLAQERYASIAAKSSSEHALHPFHASQVIAKHVDAGVTVVADGALTYLWLSEVMSRVKPGGFLCHGYLGSMGVGFGTALGAQVADLEAGRRTILVTGDGSVGYSIGEFDTLVRKQLPLIVIIMNNQSWGATLHFQQLAVGPNRVTGTRLENGSYHGVAAAFGADGYHVDSVESFSAALAQALAHNRPACINVAVALDPIPPEELILIGMDPFA
[4]
  rate of benzoin formation from two benzaldehyde molecules: 320 μmol (benzoin) mg (protein)^−1 min^−1
